Reference: the Immune Epitope Database (IEDB)
Blank lines part the entries; values can stand above or below the sequence they belong to.

What was measured:
HLA-A*30:01 = assay: IEDB peptide-MHC binding, purified MHC/competitive/radioactivity; filed as Kd, often an IC50 or EC50 that approximates it; ≥ and ≤ were set here for values at or beyond the usual limits of such assays
HLA-A*02:01 [1] = assay: IEDB peptide-MHC binding, purified MHC/competitive/fluorescence; filed as Kd, often an IC50 or EC50 that approximates it; ≥ and ≤ were set here for values at or beyond the usual limits of such assays
HLA-A*02:01 [2] = assay: IEDB peptide-MHC binding, purified MHC/competitive/fluorescence; ≥ and ≤ were set here for values at or beyond the usual limits of such assays
HLA-A*24:02 = assay: as above
HLA-B*35:01 = assay: IEDB peptide-MHC binding, purified MHC/competitive/radioactivity; filed as Kd, often an IC50 or EC50 that approximates it; ≥ and ≤ were set here for values at or beyond the usual limits of such assays
HLA-B*53:01 = assay: as above
HLA-B*54:01 = assay: as above
HLA-B*07:02 = assay: as above
HLA-B*51:01 = assay: as above
HLA-A*26:01 = assay: as above
HLA-B*15:01 = assay: IEDB peptide-MHC binding, purified MHC/direct/fluorescence; filed as Kd, often an IC50 or EC50 that approximates it; ≥ and ≤ were set here for values at or beyond the usual limits of such assays; conditions: source organism: SARS-CoV1
HLA-A*02:01 [3] = assay: as above; conditions: source organism: SARS-CoV1
HLA-B*40:01 = assay: as above; conditions: source organism: SARS-CoV1
HLA-A*11:01 = assay: as above; conditions: source organism: SARS-CoV1
HLA-B*27:05 = assay: as above
HLA-A*01:01 = assay: IEDB peptide-MHC binding, purified MHC/competitive/radioactivity; filed as Kd, often an IC50 or EC50 that approximates it; ≥ and ≤ were set here for values at or beyond the usual limits of such assays
HLA-A*02:02 = assay: as above; conditions: source organism: Vaccinia virus WR
HLA-A*02:03 = assay: as above; conditions: source organism: Vaccinia virus WR
HLA-A*02:06 = assay: as above; conditions: source organism: Vaccinia virus WR
[4] = source organism: Dengue virus 2 Jamaica/1409/1983
[5] = source organism: Sudan ebolavirus
[6] = source organism: Dengue virus 3 Martinique/1243/1999
[7] = source organism: Vaccinia virus WR
[8] = source organism: Triticum aestivum
[9] = source organism: Zaire ebolavirus
[10] = source organism: Mammarenavirus guanaritoense
[11] = source organism: Dengue virus 1 Brazil/97-11/1997
[12] = source organism: Lassa virus Josiah
[13] = source organism: Vaccinia virus

Sequence: DARIYSDPLA
Kd (HLA-A*30:01; [4]): 0.744 µM

Sequence: LVSIPRTNIV
Kd (HLA-A*02:01 [1]; source organism: Variola virus): 0.279 µM

Sequence: RWGFRSGVP
IC50 (HLA-A*02:01 [2]; [5]): 16.4 µM
IC50 (HLA-A*24:02; [5]): 16.7 µM

Sequence: YLSDSAINI
Kd (HLA-A*02:01 [1]; source organism: Vaccinia virus Copenhagen): 0.0013 µM

Sequence: KRTLTPQPME
Kd (HLA-A*30:01; [6]): 15.1 µM

Sequence: RPSIGNVFKA
Kd (HLA-B*35:01; [7]): ≥ 69.9 µM
Kd (HLA-B*53:01; [7]): ≥ 36.4 µM
Kd (HLA-B*54:01; [7]): 0.644 µM
Kd (HLA-B*07:02; [7]): 3.83 µM
Kd (HLA-B*51:01; [7]): ≥ 69.6 µM

Sequence: HTIENSTAN
Kd (HLA-A*26:01; [6]): 6.99 µM

Kd (HLA-B*35:01; [8]): 16.1 µM
Kd (HLA-B*53:01; [8]): 4.82 µM
Kd (HLA-B*54:01; [8]): ≥ 69.9 µM
Kd (HLA-B*07:02; [8]): 8.75 µM
Kd (HLA-B*51:01; [8]): 5.91 µM
Sequence: VPLVQQQQFL

Sequence: KGRRQYFYG
Kd (HLA-A*30:01; [7]): 0.00285 µM

Sequence: MSVISNPSK
Kd (HLA-A*30:01; [7]): 0.0197 µM

Sequence: NSRSTSLSV
Kd (HLA-A*30:01; [4]): 0.0149 µM

Sequence: MPNESRVKQW
Kd (HLA-B*35:01; [7]): 2.29 µM
Kd (HLA-B*53:01; [7]): 0.0304 µM
Kd (HLA-B*54:01; [7]): 5.36 µM
Kd (HLA-B*07:02; [7]): 2.39 µM
Kd (HLA-B*51:01; [7]): ≥ 69.6 µM

Sequence: VPDADPPIPY
Kd (HLA-B*35:01; [7]): 0.142 µM
Kd (HLA-B*53:01; [7]): 1.65 µM
Kd (HLA-B*54:01; [7]): 19.3 µM
Kd (HLA-B*07:02; [7]): 2.02 µM
Kd (HLA-B*51:01; [7]): ≥ 69.6 µM

Sequence: ITTAVKTVL
IC50 (HLA-A*02:01 [2]; [5]): 55.3 µM
IC50 (HLA-A*24:02; [5]): 37.4 µM

Kd (HLA-A*02:01 [1]; source organism: Escherichia coli 536): 0.0782 µM
Sequence: GQLASMVKL

Sequence: QGLIQYPTA
IC50 (HLA-A*02:01 [2]; [9]): 46.1 µM
IC50 (HLA-A*24:02; [9]): 12.6 µM

Sequence: LPSLEYGANY
Kd (HLA-B*35:01; [7]): 0.0151 µM
Kd (HLA-B*53:01; [7]): 0.0133 µM
Kd (HLA-B*54:01; [7]): 0.96 µM
Kd (HLA-B*07:02; [7]): ≥ 45.1 µM
Kd (HLA-B*51:01; [7]): ≥ 69.6 µM

Sequence: VQQESSFVM
Kd (HLA-B*15:01): 0.0674 µM
Kd (HLA-A*02:01 [3]): 1.07 µM
Kd (HLA-B*40:01): 7.46 µM
Kd (HLA-A*11:01): ≥ 20.7 µM
Kd (HLA-B*27:05; source organism: SARS-CoV1): 4.77 µM

Sequence: NPKASTISWM
Kd (HLA-B*35:01; [7]): 7.66 µM
Kd (HLA-B*53:01; [7]): 8.15 µM
Kd (HLA-B*54:01; [7]): ≥ 35.9 µM
Kd (HLA-B*07:02; [7]): 0.0947 µM
Kd (HLA-B*51:01; [7]): ≥ 69.6 µM

Sequence: EFLDYMPSM
Kd (HLA-A*26:01; [6]): 16.2 µM

Sequence: KSRRLNLFS
Kd (HLA-A*30:01; [7]): 0.00328 µM

Sequence: CTKHSKDFA
Kd (HLA-A*30:01; [7]): 0.231 µM

Sequence: NSALTLHWF
Kd (HLA-A*01:01; source organism: Dengue virus 4 Dominica/814669/1981): 2.32 µM

Sequence: LGADLDAVI
IC50 (HLA-A*02:01 [2]; [7]): 20.5 µM
IC50 (HLA-A*24:02; [7]): 7.66 µM

Sequence: TPNNFSSIV
Kd (HLA-B*35:01; [10]): 1.81 µM
Kd (HLA-B*53:01; [10]): 7.58 µM
Kd (HLA-B*54:01; [10]): 0.408 µM
Kd (HLA-B*07:02; [10]): 1.37 µM
Kd (HLA-B*51:01; [10]): 1.25 µM

Sequence: NAICSAVPVD
Kd (HLA-A*30:01; [11]): 12.1 µM

Sequence: VPVLEKKVCA
Kd (HLA-B*35:01; [7]): 7.68 µM
Kd (HLA-B*53:01; [7]): ≥ 26.4 µM
Kd (HLA-B*54:01; [7]): 0.256 µM
Kd (HLA-B*07:02; [7]): 3 µM
Kd (HLA-B*51:01; [7]): ≥ 29.1 µM

Sequence: FTTNIWLKL
Kd (HLA-A*01:01; [4]): 1.33 µM

Sequence: RVRNRVSTG
Kd (HLA-A*30:01; [6]): 0.115 µM

Sequence: AAMYQYIFL
Kd (HLA-A*30:01; [7]): 0.00753 µM

Sequence: EWAFWETKK
IC50 (HLA-A*24:02; [9]): 5.98 µM

Sequence: WPYIASRTSI
Kd (HLA-B*35:01; [12]): ≥ 72 µM
Kd (HLA-B*53:01; [12]): ≥ 23.2 µM
Kd (HLA-B*54:01; [12]): 0.714 µM
Kd (HLA-B*07:02; [12]): 0.0556 µM
Kd (HLA-B*51:01; [12]): 0.0458 µM

Sequence: YTDRKWCFD
Kd (HLA-A*01:01; [6]): 0.597 µM

Sequence: IFGNLSPET
IC50 (HLA-A*02:01 [2]; [13]): 47.3 µM
IC50 (HLA-A*24:02; [13]): 14 µM

Sequence: VTEEIAVQNW
Kd (HLA-A*01:01; [4]): ≥ 38.7 µM

Sequence: ITVIDLDPIP
Kd (HLA-A*30:01; [4]): 0.295 µM

Sequence: KTSFHIIFL
Kd (HLA-A*30:01; [7]): 0.025 µM

Sequence: QVHAEQGLI
IC50 (HLA-A*24:02; [9]): 47 µM

Sequence: PKAENTNTS
IC50 (HLA-A*24:02; [9]): 61 µM

Sequence: HIKTIAVSV
Kd (HLA-A*02:02): 3.08 µM
Kd (HLA-A*02:03): 0.0096 µM
Kd (HLA-A*02:06): 1.55 µM
Kd (HLA-A*30:01; [7]): 0.0668 µM

Sequence: EYVDYMPVM
Kd (HLA-A*26:01; source organism: Dengue virus 4 Philippines/H241/1956): ≥ 21.3 µM

Sequence: RRLKAEAQM
Kd (HLA-B*27:05; source organism: Mammarenavirus lassaense): 0.053 µM

Sequence: ETLGEKWKRQ
Kd (HLA-A*26:01; [11]): 12.3 µM

Sequence: LSRNKKPRI
Kd (HLA-A*30:01; [11]): 7.69 µM

Sequence: AVSRGSAKLR
Kd (HLA-A*30:01; [4]): 1.21 µM

Sequence: KMRRERAAY
Kd (HLA-A*30:01; [7]): 0.00304 µM

Sequence: ESALNDTWKI
Kd (HLA-A*26:01; source organism: Dengue virus 2 Peru/IQT2913/1996): ≥ 69.7 µM
